{
  "source": "FireProtDB (doi:10.1006/jmbi.2001.4521)",
  "parents": {"B1": {"name": "Growth factor receptor-bound protein 2, Q08012 (parent)", "chain": "MEAIAKHDFSATADDELSFRKTQILKILNMEDDSNWYRAELDGKEGLIPSNYIEMKNHDWYYGRITRADAEKLLSNKHEGAFLIRISESSPGDFSLSVKCPDGVQHFKVLRDAQSKFFLWVVKFNSLNELVEYHRTASVSRSQDVKLRDMIPEEMLVQALYDFVPQESGELDFRRGDVITVTDRSDENWWNGEIGNRKGIFPATYVTPYHS"}},
  "variants_of": "B1",
  "conditions": "Drosophila melanogaster, pH 6, Thermal, CD, phosphate 50 mM, Na2SO4 0.4 M, structure 2A36, whole UniProt chain shown; for unfolding free energy: 25 °C",
  "data": [
    {"variant": "T22G Q23D", "values": [
      {"measurement": "Tm", "value": 88.9, "unit": "°C"},
      {"measurement": "change of melting temperature, mutant - wild type (higher = more stable)", "value": 25.2, "unit": "°C"}
    ]},
    {"variant": "T22F", "values": [
      {"measurement": "unfolding free energy", "value": 3.1, "unit": "kcal/mol"},
      {"measurement": "Tm", "value": 66.7, "unit": "°C"},
      {"measurement": "change of melting temperature, mutant - wild type (higher = more stable)", "value": 3, "unit": "°C"}
    ]},
    {"variant": "T22A", "values": [
      {"measurement": "unfolding free energy", "value": 2.2, "unit": "kcal/mol"},
      {"measurement": "Tm", "value": 66.9, "unit": "°C"},
      {"measurement": "change of melting temperature, mutant - wild type (higher = more stable)", "value": 3.2, "unit": "°C"}
    ]},
    {"variant": "T22K", "values": [
      {"measurement": "unfolding free energy", "value": 1.8, "unit": "kcal/mol"},
      {"measurement": "Tm", "value": 65, "unit": "°C"},
      {"measurement": "change of melting temperature, mutant - wild type (higher = more stable)", "value": 1.3, "unit": "°C"}
    ]},
    {"variant": "T22G", "values": [
      {"measurement": "unfolding free energy", "value": 4.2, "unit": "kcal/mol"},
      {"measurement": "Tm", "value": 84.8, "unit": "°C"},
      {"measurement": "change of melting temperature, mutant - wild type (higher = more stable)", "value": 21.1, "unit": "°C"}
    ]},
    {"variant": "T22D", "values": [
      {"measurement": "unfolding free energy", "value": 3.3, "unit": "kcal/mol"},
      {"measurement": "Tm", "value": 73.1, "unit": "°C"},
      {"measurement": "change of melting temperature, mutant - wild type (higher = more stable)", "value": 9.4, "unit": "°C"}
    ]},
    {"variant": "T22S", "values": [
      {"measurement": "unfolding free energy", "value": 2.4, "unit": "kcal/mol"},
      {"measurement": "Tm", "value": 63.5, "unit": "°C"},
      {"measurement": "change of melting temperature, mutant - wild type (higher = more stable)", "value": -0.2, "unit": "°C"}
    ]},
    {"variant": "T22N", "values": [
      {"measurement": "unfolding free energy", "value": 3.1, "unit": "kcal/mol"}
    ]},
    {"variant": "T22L", "values": [
      {"measurement": "Tm", "value": 58, "unit": "°C"},
      {"measurement": "change of melting temperature, mutant - wild type (higher = more stable)", "value": -5.7, "unit": "°C"}
    ]}
  ]
}
